Assay: yeast display, Sf9 membrane polyspecificity reagent, FACS + sequencing; frameworks hold sequencing errors
Summary of the method: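 Genes from sorted yeast were amplified by colony PCR, read by MiSeq 2 × 250 sequencing and filtered on CDR length. These cells carried a synthetic nanobody library in Saccharomyces cerevisiae BJ5465 and were sorted by FACS into low and high (top ~1%) gates on anti-HA and streptavidin fluorescence. Polyreactivity is labelled according to the gate of origin.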

QVQLVESGGGLVQAGGSLRLSCAASGNIFYPNAMGWYRQAPWKERELVARISWRGVSTYYADSVKGRFTISRDNAKNNVYLQMNSLKPEDTEVYYCNVRPYYGRTRIKYDYWGQGTQVTVSS
polyreactivity (PSR sort gate): high polyreactivity

QVQLVESGGGLVQAGGSLRLSCAASGNIFYRYPMGWYRQAPGKEREMVAAISRSGGSTYYADSVKGRFTISRDNAKNSVYLQRNSLKPEDTAVYYCAAEYQGFWWYGDYDYWGQGTQVTVSS
polyreactivity (PSR sort gate): high polyreactivity

QVQLVESGGGLVQAGGSLRLSCAASGNIFYTNAMGWYRQAPGKERELVAAISGSGGRTYYADSVKGRFTISRDNAKNTVYLQMNSLKPEDTAVYYCNAVRREYYDRTYGYWGQGTQVTVSS
polyreactivity (PSR sort gate): low polyreactivity

QVQLVESGGGLVQAGGSLRLSCAASGNIFYVYAMGWYRQAPGKERELVAVISRNDGSTYYADSVKGRFTISRDNAKNTVYLQMNSLKPEDTAVYYCNAEWYFWGQGTQVTVSS
polyreactivity (PSR sort gate): low polyreactivity

QVQLVESGGGLVQAGGSLRLSCAASGNIISTYAMGWYRQAPGKERELVAAITSSSARTYYADSVKGRFTISRDNAKNTVYLQLNSLKPEDTAVYYCATRTGIRQDLVHLYRVYYWGQGTQVTVSS
polyreactivity (PSR sort gate): high polyreactivity

QVQLVESGGGLVQAGGSLRLSCAASGNILEYNAMGWYRQAPGKERELVAAISRGGITNYADSVKGRFTISRDNAKNTVYLQMNSLKPEDTAVYYCATRWIGYTSQWDHFEYDYWGQGTQVTVSS
polyreactivity (PSR sort gate): low polyreactivity

QVQLVESGGGLVQAGGSLRLSCAASGNILEYNAMGWYRQAPGKEREMVAAISRGGITNYADSVKGRFTISRDNAKNTVYLQMNCLKPEDTAVYYCATRWIGYTSQWDHFEYDYWGQGTQVTVSS
polyreactivity (PSR sort gate): low polyreactivity

QVQLVESGGGLVQAGGSLRLSCAASGNILIGNVMGWYRQAPGKERELVAAITSGGDTYYADSVKGRFTISRDNAKNTVYLQMNSLKPEDTAVYYCAADRPGQPKYEYWGQGTQVTVSS
polyreactivity (PSR sort gate): low polyreactivity

QVQLVESGGGLVQAGGSLRLSCAASGNILLFNAMGWYRQAPGKERELVATINQSGGRTYYADSVKGRFTISRDNAKNTVYLQMNSLKPEDTAVYYCAATYVYWTWGYDYWGQGTLVTVSS
polyreactivity (PSR sort gate): low polyreactivity

QVQLVESGGGLVQAGGSLRLSCAASGNILRGYAMGWYRQAPGKERELVAAINRGGGSTYYADSVKGRFTISRDNAKNTVYLQMNSLKPEDTAVYYCAARYPHRGYTFDYWGQGTQVTVSS
polyreactivity (PSR sort gate): low polyreactivity

QVQLVESGGGLVQAGGSLRLSCAASGNILRSYAMGWYRQAPGKERELVAAISADGSGTYYADSVKGRFTISRDNAKNTVYLQMNSLKPEDTAVYYCAAERYFWWYYDPENYWGQGTQVTVSS
polyreactivity (PSR sort gate): high polyreactivity

QVQLVESGGGLVQAGGSLRLSCAASGNIVDYYGMGWYIQAPGKERELVAAINVSGDSTYYADSVKGRFTISRDNAKNTVYLQMNSLKPEDTAVYYCAADYGWGSGFEYDYWGQGTQVTVSS
polyreactivity (PSR sort gate): low polyreactivity

QVQLVESGGGLVQAGGSLRLSCAASGNNFYRNAMGWSRQAPGKERELVAAINSGSSTKYADSVKGRFTISRDNAKNTVYLQMNSLKPEDTAVYYCAKRRYTAIWYGYWGQGSQVTVSS
polyreactivity (PSR sort gate): high polyreactivity

QVQLVESGGGLVQAGGSLRLSCAASGNNLLGYAMGWYRQAPGKEREWVAAISSSGGRTYYADSVKGRFTISRDNAKNTVYLQMNSLKPEDTAVYYCAAYTYSAGGYWGQGTQVTVSS
polyreactivity (PSR sort gate): high polyreactivity

QVQLVESGGGLVQAGGSLRLSCAASGNTFAGNAKGCYRQAPGKERELVAAISRSGVTTRYADSVKGRFTISRDNAKNTVYLQMNSLKPEDTAVYYCNADPRLRQTRDYWGQGTQVTVSS
polyreactivity (PSR sort gate): high polyreactivity

QVQLVESGGGLVQAGGSLRLSCAASGNTFAGNAMGWYRPAPGKERELVAAISRSGVTTRYADSVKGRVTISRDNAKHTVYLQMNSLKPEDTAVYYCNADPRLRQTRDYWGQGTQVTVSS
polyreactivity (PSR sort gate): high polyreactivity

QVQLVESGGGLVQAGGSLRLSCAASGNTFAGNAMGWYRQATGKERELVAAISWSGTRTYYADSVKGRFTISRDNAKNTVYLQMNSLKPEDTAVYYCAKLSTNKEYYWGQGTQVTVSS
polyreactivity (PSR sort gate): high polyreactivity

QVQLVESGGGLVQAGGSLRLSCAASGNTFAGYAMGWYRQAPGKEMEWVAAISTRGGITYYADSVKGRFTISRDNAKNTVYLQMNCLKPEDTAVYYCAAEFYYPWTYCSCDGRRVYYWGQGTQVTVSS
polyreactivity (PSR sort gate): high polyreactivity

QVQLVESGGGLVQAGGSLRLSCAASGNTFAHYVMGWYRQAPGKERELVASITSGGSTNYADSVKGRFTISRDNAKNTVYLQMNSLKPEDTAVYYCAVSLSYWYEAFTTRIDYYYWGQGTQVTVSS
polyreactivity (PSR sort gate): high polyreactivity

QVQLVESGGGLVQAGGSLRLSCAASGNTFANYAMGWYRQAPGKERELVAAITSNGGSTYYADSVKGRFTISRDNAKNTVYLQMNSLKPEDTAVYYCAADAAYYSGYDYWGQGTQVTVSS
polyreactivity (PSR sort gate): low polyreactivity

QVQLVESGGGLVQAGGSLRLSCAASGNTFASYVMGWYRQAPGNERELVAAISWSGGSTYYADSVKGRFTISRDNAKNTVYLQMNSLKPEDTAVYYCNAKRNVRYGYWGQGTQVTVSS
polyreactivity (PSR sort gate): high polyreactivity

QVQLVESGGGLVQAGGSLRLSCAASGNTFATYALGWYRQAPGKERELVAAITWSGGSTYYADSVKGRFTISRDNAKNTVYLQMNSLKPEDTAVYYCAADYLYYAIPAYYWDTGYDYWGQGTQVTVSS
polyreactivity (PSR sort gate): low polyreactivity

QVQLVESGGGLVQAGGSLRLSCAASGNTFAVNAMGWYRQAPGKERELVAAISKRGGRTYYADSVKGRFTISRDNAKNTVYLQMNSLKPEDTAVYYCAADLSNSMDYWGQGTQVTVSS
polyreactivity (PSR sort gate): high polyreactivity

QVQLVESGGGLVQAGGSLRLSCAASGNTFAYNVMGWYRQAPGKERELVAAISRSGGSTYYADSVKGRFTISRDNAKNTVYLQMNSLKPEDTAVYYCAAVVRRVRPEGSYNRWGHDYWGQGTQVTVSS
polyreactivity (PSR sort gate): high polyreactivity

QVQLVESGGGLVQAGGSLRLSCAASGNTFDIYAMGWYRQAPGKERELVAAISRRGGSTYYADSVKGRFTISRDNAKNTVYLQMNSLKPEDTAVYYCNAKHKITHSSSDYWGQGTQVTVSS
polyreactivity (PSR sort gate): high polyreactivity

QVQLVESGGGLVQAGGSLRLSCAASGNTFFKNAMGWYRQAPGKERELVAAISKRGGSTYYADSVKGRFTISRDNAKNTVYLQMNSLIPEDTAVYYCAADTFGVYASTYDYWGQGTQVTVSS
polyreactivity (PSR sort gate): high polyreactivity

QVQLVESGGGLVQAGGSLRLSCAASGNTFFVYAMGWYRQAPGKERELVADINWSTGSTYYADFVKGRFTISRDNAKNTVYLQMNSLKPEDTAVYYCAAEAYYYVIFHGSWYTDDYWGQGTQVTVSS
polyreactivity (PSR sort gate): low polyreactivity

QVQLVESGGGLVQAGGSLRLSCAASGNTFGDNAMGWYRQAPGKERELVAAISTGGNTYYADSVKGRFTISRDNAKNTVYLQMNSLKPEDTAVYYCNAKWIPDTLFGIHETEGDYWGQGTQVTVSS
polyreactivity (PSR sort gate): low polyreactivity

QVQLVESGGGLVQAGGSLRLSCAASGNTFGINAMGWYRQAPGKERELVASISFTGSSTYYADSVKGRFTISRDNAKNTVYLQMNSLKPEDTAVYYCNRDRITLYEYDYWGQGTQVTVSS
polyreactivity (PSR sort gate): low polyreactivity

QVQLVESGGGLVQAGGSLRLSCAASGNTFGLYAMGWYRQAPGKDRELVATITWSVSTYADSEKGRFTISRDNAKITVYLEMNSLKPEDTAVYFCAATTGPWYWRYVYWGQGTQVTVSS
polyreactivity (PSR sort gate): high polyreactivity

QVQLVESGGGLVQAGGSLRLSCAASGNTFGNYGMGWYRQAPGKEREFVAAITSRGTSTYYADSVKGRFTISRDNAKYTVYLQMNSLKPEDTAVYYCNARPRYKYPRYDYWGQGTQVTVSS
polyreactivity (PSR sort gate): high polyreactivity

QVQLVESGGGLVQAGGSLRLSCAASGNTFGQYTMGWYRQAPGKERELVAAISWDDSSTNYADSVKGRFTISRDNAKNTVYLQMNSLIPEDTAVYYCAKETELGTQYPYEYDYWGQGTQVTVSS
polyreactivity (PSR sort gate): low polyreactivity

QVQLVESGGGLVQAGGSLRLSCAASGNTFGRYAMGWYRQAPGKERELVASIRGSSVRTFYADSVKGRFTISRDNAKNTVYLQMNSLKPEDTAVYYCAAEVYRYYATGYGYWGQGTQVTVSS
polyreactivity (PSR sort gate): high polyreactivity

QVQLVESGGGLVQAGGSLRLSCAASGNTFGVYAMGWYRQAPGKERELVAAIRYRGGSTYYADSVKGRFTISRDKAKNTVYLQMTSLKPEETAVYYCAAVYYVQYVGRYYYWGQGTQVTVSS
polyreactivity (PSR sort gate): high polyreactivity

QVQLVESGGGLVQAGGSLRLSCAASGNTFHYYTMGWYRQAPGKERELVAAITRSAGRTYYADSVKGRFTISRDNAKTTVYLQMNSLKPEDTAVYYCATERERTMGYWGQGTQVTVSS
polyreactivity (PSR sort gate): high polyreactivity

QVQLVESGGGLVQAGGSLRLSCAASGNTFLWYAMGWYRQAPGKEREFVAAIRRSGASTYYADSVKGRFTISRDNAKNTVYLQMNSLKPEDTAVYYCAAKFVYWSGAVYTRYDYWGQGTQVTVSS
polyreactivity (PSR sort gate): high polyreactivity

QVQLVESGGGLVQAGGSLRLSCAASGNTFLWYAMGWYRQAPGKERELGAAISRGGGSTYYADSVKGRFTISRDNAKNTVYLQMNSLKPEDTAVYYCAARTYYSARSIHYREFEYWGQGTQVTVSS
polyreactivity (PSR sort gate): high polyreactivity

QVQLVESGGGLVQAGGSLRLSCAASGNTFNNNAMGWYRQAPGKERELVAAISGSGGSTYYADSVKGRFTISRDNAKNTVYLQMNSLKPEDTAVYYCAVRLVHGGKRYGYWGQGTQVTVSS
polyreactivity (PSR sort gate): high polyreactivity

QVQLVESGGGLVQAGGSLRLSCAASGNTFNPNAMGWYRQAPGKERELVAVIRFRGGSTYYADSVKGRFTISRDNAKNTVYLQMNSLKPEDTAVYYCAADFLYYYLRYYYWGQGTQVTVSS
polyreactivity (PSR sort gate): high polyreactivity

QVQLVESGGGLVQAGGSLRLSCAASGNTFQSYAMGRYRQAPGKEREFVAAIRQSGGSTYYADSVKGRFTISRDTAKYTVYLQMNSLKPEATAVYYCAAYFTPRKYKPYDYWGLGTQVTVSS
polyreactivity (PSR sort gate): high polyreactivity

QVQLVESGGGLVQAGGSLRLSCAASGNTFRNYAMGWYRQAPGKERELVAAISWTGARTYYADSVKGRFTISRDNAKNTVYLQMNSLKPEDTAVYYCARPLQWWSPSGTVDYGYWGQGTQVTVSS
polyreactivity (PSR sort gate): high polyreactivity

QVQLVESGGGLVQAGGSLRLSCAASGNTFSAYAMGWYRQAPGKERELVAAISSRGGSTYYADSVKGRFTISRDNAKNTVYLQMNSLKPEDTAVYYCAAGYRGVANRKWIYYYWGQGTQVTVSS
polyreactivity (PSR sort gate): high polyreactivity

QVQLVESGGGLVQAGGSLRLSCAASGNTFSDYAMGWYRQAPGKERELVAAISSSGVRTYYADSVKVRFTISRDNAKNTVYLHMISLNPEDTAVYYCAADNYYYRFVAAMDYWGQGTQVTVSS
polyreactivity (PSR sort gate): high polyreactivity
